We go through four molecules from paper PMC7480108.

Assay [1] has as its target endogenous FGD1 (faciogenital dysplasia protein 1) (UniProt P98174). Briefly: co-immunoprecipitation (anti-GFP nanobody, GFP-Trap) with FGD1 immunoblot. The following applies: lysates of MDA-MB-231 cells; 1% of total lysate loaded as input; parent: 100.
Assay [2] addresses GST-FGD1^18-335 (UniProt P52734). Briefly: pull-down; GST-tagged FGD1 fragment (2 µM) immobilised on Glutathione Sepharose 4B beads, incubated with MDA-MB-231 cell lysates (untransfected or transfected with TKS5^GFP constructs) 2 h at 4°C; 50 mM Tris-HCl pH 7.5, 150 mM NaCl, 0.5 mM EDTA, 10 mM MgCl2, 10% glycerol, 0.7% NP-40; immunoblotting. Background: A western blot detects proteins with antibodies after separation by electrophoresis.
Chain of UniProt P52734 (P52734 18-335): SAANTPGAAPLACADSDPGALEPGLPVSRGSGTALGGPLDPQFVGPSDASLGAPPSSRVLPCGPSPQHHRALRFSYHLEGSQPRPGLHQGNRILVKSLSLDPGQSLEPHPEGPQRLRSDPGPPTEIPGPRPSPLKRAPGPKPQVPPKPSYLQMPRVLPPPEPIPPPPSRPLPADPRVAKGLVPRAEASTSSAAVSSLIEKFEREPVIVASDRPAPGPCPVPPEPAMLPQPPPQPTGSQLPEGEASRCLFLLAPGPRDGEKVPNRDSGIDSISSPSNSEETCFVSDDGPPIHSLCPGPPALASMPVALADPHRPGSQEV

Assay [3] addresses TKS5^GFPW1092A (human). Briefly: co-IP; GFP-Trap (anti-GFP nanobody beads) from NP-40 lysates of MDA-MB-231 cells expressing GFP-tagged constructs, 1 h 4°C; immunoblotting of bound proteins.

Regarding TKS5^GFP W861A, the percent of parent (% of wild-type TKS5) in assay [1] was found to be 91.

On to TKS5^GFP (natural protein), for which, in assay [2], the percent of the input pulled down (% of the input) is 1.35. On to TKS5_324-1118^GFP (domain or fragment), for which, in assay [2], the percent of the input pulled down (% of the input) came to 2.85.

B1: endogenous FGD1 (faciogenital dysplasia protein 1) (natural protein)
chain: MHGHRAPGGAGPSEPEHPATNPPGAAPPACADSDPGASEPGLLARRGSGSALGGPLDPQFVGPSDTSLGAAPGHRVLPCGPSPQHHRALRFSYHLEGSQPRPGLHQGNRILVKSLSLDPGQSLEPHPEGPQRLRSDPGPPTETPSQRPSPLKRAPGPKPQVPPKPSYLQMPRMPPPLEPIPPPPSRPLPADPRVAKGLAPRAEASPSSAAVSSLIEKFEREPVIVASDRPVPGPSPGPPEPVMLPQPTSQPPVPQLPEGEASRCLFLLAPGPRDGEKVPNRDSGIDSISSPSNSEETCFVSDDGPPSHSLCPGPPALASVPVALADPHRPGSQEVDSDLEEEDDEEEEEEKDREIPVPLMERQESVELTVQQKVFHIANELLQTEKAYVSRLHLLDQVFCARLLEEARNRSSFPADVVHGIFSNICSIYCFHQQFLLPELEKRMEEWDRYPRIGDILQKLAPFLKMYGEYVKNFDRAVELVNTWTERSTQFKVIIHEVQKEEACGNLTLQHHMLEPVQRIPRYELLLKDYLLKLPHGSPDSKDAQKSLELIATAAEHSNAAIRKMERMHKLLKVYELLGGEEDIVSPTKELIKEGHILKLSAKNGTTQDRYLILFNDRLLYCVPRLRLLGQKFSVRARIDVDGMELKESSNLNLPRTFLVSGKQRSLELQARTEEEKKDWVQAINSTLLKHEQTLETFKLLNSTNREDEDTPPNSPNVDLGKRAPTPIREKEVTMCMRCQEPFNSITKRRHHCKACGHVVCGKCSEFRARLVYDNNRSNRVCTDCYVALHGVPGSSPACSQHTPQRRRSILEKQASVAAENSVICSFLHYMEKGGKGWHKAWFVVPENEPLVLYIYGAPQDVKAQRSLPLIGFEVGPPEAGERPDRRHVFKITQSHLSWYFSPETEELQRRWMAVLGRAGRGDTFCPGPTLSEDREMEEAPVAALGATAEPPESPQTRDKT
In the case of B1, the percent of the wild-type TKS5 binding capacity (% of wild type) in assay [3] is 10.
